Values of other authors in article PMC5662943.

Target: PCNA (Homo sapiens) (UniProt P12004)
Sequence of UniProt P12004 (P12004 whole entry): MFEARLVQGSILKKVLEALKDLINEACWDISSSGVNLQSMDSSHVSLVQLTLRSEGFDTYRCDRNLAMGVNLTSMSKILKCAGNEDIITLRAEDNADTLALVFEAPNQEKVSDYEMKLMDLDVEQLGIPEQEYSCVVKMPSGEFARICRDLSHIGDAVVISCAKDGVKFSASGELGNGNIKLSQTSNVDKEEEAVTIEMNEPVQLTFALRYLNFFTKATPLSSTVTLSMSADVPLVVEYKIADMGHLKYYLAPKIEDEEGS

Kd: 0.2 nM
Substance: RFC (from UniProt P35251)
